# Test results taken from publication PMC6979384, “Characterization of the plant homeodomain (PHD) reader family for their histone tail interactions” (Epigenetics & Chromatin, 2020).
# B1: CHD4 (PPCC): GST-tagged Dual PHD + Dual Chromo, 350-710 (protein)
# chain: KKKKKGEEEVTAVDGYETDHQDYCEVCQQGGEIILCDTCPRAYHMVCLDPDMEKAPEGKWSCPHCEKEGIQWEAKEDNSEGEEILEEVGGDLEEEDDHHMEFCRVCKDGGELLCCDTCPSSYHIHCLNPPLPEIPNGEWLCPRCTCPALKGKVQKILIWKWGQPPSPTPVPRPPDADPNTPSPKPLEGRPERQFFVKWQGMSYWHCSWVSELQLELHCQVMFRNYQRKNDMDEPPSGDFGGDEEKSRKRKNKDPKFAEMEERFYRYGIKPEWMMIHRILNHSVDKKGHVHYLIKWRDLPYDQASWESEDVEIQDYDLFKQSYWNHRELMRGEEGRPGKKLKKVKLRKLERPPETPTVDPTV
# modifications: GST tag
# B2: TRIM66 (PB): GST-tagged PHD + Bromo, 966-1216 (protein)
# chain: APIENEDFCAVCLNGGELLCCDRCPKVFHLSCHVPALLSFPGGEWVCTLCRSLTQPEMEYDCENACYNQPGMRASPGLSMYDQKKCEKLVLSLCCNNLSLPFHEPVSPLARHYYQIIKRPMDLSIIRRKLQKKDPAHYTTPEEVVSDVRLMFWNCAKFNYPDSEVAEAGRCLEVFF
# modifications: GST tag
# B3: CHD5 (PPCC): GST-tagged Dual PHD + Dual Chromo, 330-670 (protein)
# chain: KRIDDGDGYETDHQDYCEVCQQGGEIILCDTCPRAYHLVCLDPELEKAPEGKWSCPHCEKEGIQWEPKDDDDEEEEGGCEEEEDDHMEFCRVCKDGGELLCCDACPSSYHLHCLNPPLPEIPNGEWLCPRCTCPPLKGKVQRILHWRWTEPPAPFMVGLPGPDVEPSLPPPKPLEGIPEREFFVKWAGLSYWHCSWVKELQLELYHTVMYRNYQRKNDMDEPPPFDYGSGDEDGKSEKRKNKDPLYAKMEERFYRYGIKPEWMMIHRILNHSFDKKGDVHYLIKWKDLPYDQCTWEIDDIDIPYYDNLKQAYWGHRELMLGEDTRLPKRLLKKGKKLRDDK
# modifications: GST tag
# B4: DPF2 (PPC2W2): GST-tagged Dual PHD + C2W2 finger, 190-391 (protein)
# chain: VGSARKKLDASILEDRDKPYACDICGKRYKNRPGLSYHYAHSHLAEEEGEDKEDSQPPTPVSQRSEEQKSKKGPDGLALPNNYCDFCLGDSKINKKTGQPEELVSCSDCGRSGHPSCLQFTPVMMAAVKTYRWQCIECKCCNICGTSENDDQLLFCDDCDRGYHMYCLTPSMSEPPEGSWSCHLCLDLLKEKASIYQNQNSS
# modifications: GST tag
# B5: PHRF1 (RP): GST-tagged RING + PHD, 90-250 (protein)
# chain: QGKLEAAGSFNSDDDAESCPICLNAFRDQAVGTPENCAHYFCLDCIVEWSKNANSCPVDRTLFKCICIRAQFGGKILRKIPVENTKASEEEEDPTFCEVCGRSDREDRLLLCDGCDAGYHMECLDPPLQEVPVDEWFCPECAAPGVVLAADAGPVSEEEVS
# modifications: GST tag
# Experiment: dCypher AlphaScreen Phase A, optimal reader concentration range
# Type: binding
# Conditions: 100 nM biotinylated peptide; 30 min + 60 min at 23 °C; AlphaLISA; n = 2
# Protocol: Fig. 3 dCypher histone peptide-binding assays define the PTM recognition preference of PHD proteins with high sensitivity. a–h Binding curves to determine optimal reader protein concentration for full peptide library screening on the dCypher® AlphaScreen® platform (see “Methods”). X-axes are log(protein concentration (M)) at constant peptide concentration (100 nM); Y-axes are AlphaScreen counts, representing relative strength of binding (n = 2; error bars are S.D.). i Heat map represents relative binding to H3 N-terminal peptides (left) by PHD-containing GST-tagged proteins (top) using the dCypher AlphaScreen platform. Protein concentrations can be found in Additional file 5: Table S4. Binding strength is indicated by color gradient from green to yellow (stronger to weaker). The asterisk (*) by MLL5 signifies its general preference for H3K4 methylation. Alpha counts (n = 2) were normalized individually for each protein to the highest signal for each respective assay. For full dCypher peptide screen data, see Additional file 4: Table S3
# We next employed a highly sensitive proximity-based AlphaScreen histone peptide assay (dCypher®) to provide a third and orthogonal approach to analyzing the histone binding preferences for a subset of the 31 PHD proteins with respect to various histone tail PTMs. In this assay, biotinylated peptides are bound to streptavidin “donor” beads and the GST-tagged reader domains bound to Glutathione “acceptor” beads. The donor beads are excited by 680 nm light, releasing a singlet oxygen which causes light emission (520–570 nm) in proximal acceptor beads (within 200 nm); emission intensity is then correlated to binding strength. […] Additionally, we examined several well characterized PHD–PTM interactors [DIDO1, KDM7A, and DPF2 (PPC2W2)] for positive controls and to provide a benchmark. Initial binding assays were conducted for each fusion protein using three peptides [H3 (1–20) with K4me0, H3K4me3 or H3K9me3] to determine the optimal reader domain concentration for full peptide library studies (Fig. 3a–h; Additional file 4: Table S3 and Additional file 5: Table S4). This is an important first step as signal often declined after query protein saturation (the ‘hook point’, caused by excess free query competing with bead bound).
# The dCypher peptide screen assay was performed as previously described. Briefly, 5 μL of GST-tagged reader domains (optimal protein concentration for library screening determined by initial binding curves to candidate peptides) were incubated with 5 μL of 400 nM (100 nM Final) biotinylated histone peptides (EpiCypher) for 30 min at 23 °C in 1× AlphaLISA Epigenetics buffer + epigenetics buffer supplement (PerkinElmer, AL1008) in a 384-well plate. […] Plates were incubated at 23 °C in subdued lighting for 60 min and AlphaLISA signal measured on a PerkinElmer 2104 EnVision (680 nm laser excitation, 570 nm emission filter ± 50 nm bandwidth).
# Supplementary file 13072_2020_328_MOESM4_ESM.xlsx: Additional file 4: Table S3. dCypher Results. Excel Tab Peptide Phase A is a compiled set of binding data: chromatin reader titration vs. several peptide targets. […] Excel Tab Peptide Phase B is a compiled set of binding data: chromatin reader at optimized concentrations vs. entire 293 peptide library. […]
row,Molecule,Phase A Optimal Range (reader concentration)
1,B1,0.45 to 10 nM
2,B2,0.5 to 10 nM
3,B3,1 to 35 nM
4,B4,0.05 to 1 nM
5,B5,5 to 30 nM
